The labels stand for the following.
B1: Speckle-type POZ protein (Homo sapiens), O43791 (parent)
chain: MSRVPSPPPPAEMSSGPVAESWCYTQIKVVKFSYMWTINNFSFCREEMGEVIKSSTFSSGANDKLKWCLRVNPKGLDEESKDYLSLYLLLVSCPKSEVRAKFKFSILNAKGEETKAMESQRAYRFVQGKDWGFKKFIRRDFLLDEANGLLPDDKLTLFCEVSVVQDSVNISGQNTMNMVKVPECRLADELGGLWENSRFTDCCLCVAGQEFQAHKAILAARSPVFSAMFEHEMEESKKNRVEINDVEPEVFKEMMCFIYTGKAPNLDKMADDLLAAADKYALERLKVMCEDALCSNLSVENAAEILILADLHSADQLKTQAVDFINYHASDVLETSGWKSMVVSHPHLVAEAYRSLASAQCPFLGPPRKRLKQS

The experiment covers variants of B1. The note with it: with cul3_human CUL3, Q13618.
Turning to M233E, the “effect of a mutation on the interaction” value was “disrupting interaction strength”.
